The chains are these.
T1: B. stearothermophilus primase DnaG R495A (B. stearothermophilus, UniProt Q9X4D0 1-597, R495A)
T1 sequence (looked up): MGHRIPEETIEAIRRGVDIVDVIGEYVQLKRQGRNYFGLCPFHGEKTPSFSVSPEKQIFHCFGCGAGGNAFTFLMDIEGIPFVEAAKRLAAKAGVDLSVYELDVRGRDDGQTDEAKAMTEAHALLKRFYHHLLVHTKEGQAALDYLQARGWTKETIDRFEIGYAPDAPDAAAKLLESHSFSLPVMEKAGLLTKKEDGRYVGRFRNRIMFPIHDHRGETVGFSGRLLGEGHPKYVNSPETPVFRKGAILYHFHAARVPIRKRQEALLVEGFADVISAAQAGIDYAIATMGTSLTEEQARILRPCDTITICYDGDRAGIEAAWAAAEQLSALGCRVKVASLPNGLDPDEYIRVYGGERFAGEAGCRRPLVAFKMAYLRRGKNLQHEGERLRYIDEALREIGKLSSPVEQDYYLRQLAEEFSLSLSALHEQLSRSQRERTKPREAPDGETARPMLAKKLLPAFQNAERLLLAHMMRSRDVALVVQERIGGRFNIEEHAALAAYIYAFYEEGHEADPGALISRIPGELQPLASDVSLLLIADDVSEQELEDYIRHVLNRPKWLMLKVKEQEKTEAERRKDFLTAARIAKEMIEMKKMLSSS

T2: B. stearothermophilus primase DnaG R555A (B. stearothermophilus, UniProt Q9X4D0 1-597, R555A)
T2 sequence (looked up): T1 sequence (looked up) with A495R, R555A

T3: B. stearothermophilus primase DnaG E464G (B. stearothermophilus, UniProt Q9X4D0 1-597, E464G)
T3 sequence (looked up): T1 sequence (looked up) with E464G, A495R

T4: B. stearothermophilus primase DnaG H494A (B. stearothermophilus, UniProt Q9X4D0 1-597, H494A)
T4 sequence (looked up): T1 sequence (looked up) with H494A, A495R

B1: Bacillus stearothermophilus primase DnaG (native) (enzyme, B. stearothermophilus, UniProt Q9X4D0 1-597, looked up)
chain: T1 sequence (looked up) with A495R
B2: Bacillus stearothermophilus replicative helicase DnaB (native) (enzyme, B. stearothermophilus)
chain: MSELFSERIPPQSIEAEQAVLGAVFLDPAALVPASEILIPEDFYRAAHQKIFHAMLRVADRGEPVDLVTVTAELAASEQLEEIGGVSYLSELADAVPTAANVEYYARIVEEKSVLRRLIRTATSIAQDGYTREDEIDVLLDEADRKIMEVSQRKHSGAFKNIKDILVQTYDNIEMLHNRDGEITGIPTGFTELDRMTSGFQRSDLIIVAARPSVGKTAFALNIAQNVATKTNENVAIFSLEMSAQQLVMRMLCAEGNINAQNLRTGKLTPEDWGKLTMAMGSLSNAGIYIDDTPSIRVSDIRAKCRRLKQESGLGMIVIDYLQLIQGSGRSKENRQQEVSEISRSLKALARELEVPVIALSQLSRSVEQRQDKRPMMSDIRESGSIEQDADIVAFLYRDDYYNKDSENKNIIEIIIAKQRNGPVGTVQLAFIKEYNKFVNLERRFDEAQIPPGA

Numbering of substitutions follows the chain as printed.

Assay [1] addresses Bacillus stearothermophilus replicative helicase DnaB (native) (B. stearothermophilus) (UniProt Q9X4C9). Put plainly: ITC.
Assay [2] deals with B2. Put plainly: ITC. In general terms: Isothermal titration calorimetry measures the heat released or taken up as one component is titrated into another.
Assay [3] deals with T1, B. stearothermophilus primase DnaG R495A. Put plainly: SEC. For orientation: In gel filtration, larger molecules generally elute earlier.
Assay [4] concerns the target T2, B. stearothermophilus primase DnaG R555A. Put plainly: SEC.
For assay [5], the target named is B1. Put plainly: ITC.
Assay [6] addresses T3, B. stearothermophilus primase DnaG E464G. Briefly: ITC.
For assay [7], the target named is T4, B. stearothermophilus primase DnaG H494A. Briefly: ITC.

The source of these data is publication PMC3035050 (Molecular microbiology, 2008).

As usually defined, the Kd is a measure of binding affinity in units of concentration. Low values mean a tighter complex, high ones a looser complex. As a reminder, the stoichiometry N is the number of molecules, sites or subunits per partner or assembly. On to “B. stearothermophilus primase DnaG Y548A (from UniProt Q9X4D0 1-597) (enzyme)”, for which, in assay [1], the Kd was 83.3 nM and the stoichiometry N amounted to 0.509.
Consider B1, for which, in assay [2], the dH was found to be 17.8 kcal/mol and the “stoichiometry N” value was 0.287.
B2: the binding result in assay [3] and in assay [4] was “binds” throughout. Also, the results for the Ka in assay [5], in assay [6] and in assay [7] were 1.42e+08 M⁻¹, 1.18e+08 M⁻¹ and 1.18e+08 M⁻¹, respectively. The Kd in assay [5] stood at 7.04 nM; in assay [6] it was 8.5 nM; in assay [7], 8.5 nM.
